Measurements published in paper PMC4549789.

Molecular target: Escherichia coli β sliding clamp (Escherichia coli) (UniProt P0A988)
UniProt P0A988, sequence (P0A988 whole entry): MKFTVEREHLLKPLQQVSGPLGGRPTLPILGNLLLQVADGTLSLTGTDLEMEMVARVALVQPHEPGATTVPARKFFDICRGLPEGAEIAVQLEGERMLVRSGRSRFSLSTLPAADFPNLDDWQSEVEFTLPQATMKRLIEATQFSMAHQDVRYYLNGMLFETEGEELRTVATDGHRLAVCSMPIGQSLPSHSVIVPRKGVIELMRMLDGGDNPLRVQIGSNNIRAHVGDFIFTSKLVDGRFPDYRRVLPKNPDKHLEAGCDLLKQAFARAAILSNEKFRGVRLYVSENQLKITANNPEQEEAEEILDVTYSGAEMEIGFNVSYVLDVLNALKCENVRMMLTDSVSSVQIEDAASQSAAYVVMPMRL

papillae in the in vivo papillation assay of transposition in E. coli DH5α (quantification for 8 colonies): 3.15
Substance: Acidiphilium IS1634 transposase, wild type (enzyme)
